The values below come from US20140227179A1 (published 2014).

For the test, the target named is T1, MUC5ac mucin (PAM4 antigen) from CaPan1 human pancreatic carcinoma (human, UniProt P98088 28-5654, limits assumed, heavily glycosylated native mucin).
T1 construct: The antigen was never used as a pure recombinant protein; also called CaPan1 Ag; CaPan1 antigens
Kind of test: ELISA on target mucin antigen (FIG. 9).

For orientation: EC50 means the concentration giving half of the maximal effect. A lower EC50 goes with a more potent agent.

B1: PAM4-F(ab′)2 (other)
chain 1: EVQLQESGPELVKPGASVKMSCKASGYTFPSYVLHWVKQKPGQGLEWIGYINPYNDGTQYNEKFKGKATLTSDKSSSTAYMELSRLTSEDSAVYYCARGFGGSYGFAYWGQGTLITVSA
chain 2: DIVMTQSPAIMSASPGEKVTMTCSASSSVSSSYLYWYQQKPGSSPKLWIYSTSNLASGVPARFSGSGSGTSYSLTISSMEAEDAASYFCHQWNRYPYTFGGGTKLEIK
On to B1, for which the EC50 came out at 1.83 nM.
